Test results as given in paper PMC8514580, “Insight into the interaction between the RNA helicase CGH-1 and EDC-3 and its implications” (Scientific Reports, 2021).
Read-outs that look alike come from different tables or passages of the source. No end group written: not given here.

Tests used:
CGH-1_248-420^F355A = CGH-1_248-420^F355A (Caenorhabditis elegans, UniProt Q95YF3, F355A); conditions: ITC, 20 °C, pH 7.5, 150 mM NaCl, CGH-1 F355A
Method: Expression plasmids regarding CGH-1 and CAR-1 were constructed as previously described. In brief, the cDNA fragments encoding CGH-1 RecA2 (residues 248–420), CAR-1 FDF-TFG (residues 184–268) were amplified by PCR from C. elegans genome library and cloned into the NdeI and XhoI site of a modified pET-28a (Novagen) vector (p28a), in which a thrombin protease cleavage site was removed.
CGH-1 protein expression and purification were performed described as in our most recent paper. In brief, proteins were expressed in E. coli Gold (DE3) strain (Novagen). […] Cells were resuspended in Buffer A (20 mM Tris–HCl, pH 7.5, 1 M NaCl), and then lysed using high pressure at 4 °C. Proteins were initially purified by Ni-chelating resin (Qiagen), and further purified by size exclusion chromatography (SEC) on a Superdex 75 column (GE healthcare) in Buffer A. The purified proteins were dialyzed into Buffer B (20 mM Tris–HCl, pH 7.5, 150 mM NaCl).
A peptide containing the C. elegans EDC-3 FDF fragment (residues 235–271) and PATR-1 fragment (residues 30–67) were synthesized from GL Biochem (Shanghai, China) Co., Ltd, respectively. Stock solutions of peptide were prepared in Buffer B described above, and were adjusted to pH 7.5 ± 0.02 for subsequent experiments.
ITC assays were performed as previously described. In brief, it was carried out on a MicroCal PEAQ-ITC (Malvern) at 20 °C with the following settings: reference power, 5 μcal/s; initial delay, 60 s; stir speed, 750 rpm; spacing time, 120 s. Proteins (or its mutants) and peptides were adjusted to 0.05 mM and 0.5 mM, respectively. Experiments were initialed by injection of 1 μl each of peptide into the sample cell (200 μl) filled with protein (or its mutants) solution, followed by 18 injections of 2 μl. The ITC data were fitted with a one-binding-site model using the Origin analysis software.

[1] = molecular target: T1, CGH-1_(248–420) wild type (CGH-1 RecA2 domain) (C. elegans, UniProt Q95YF3 248-420); experiment: ITC; ligand (peptide or CAR-1 fragment, 0.5 mM) injected into CGH-1_(248-420) or mutant (0.05 mM) in the cell; 20 °C; Buffer B (20 mM Tris-HCl pH 7.5, 150 mM NaCl); one-binding-site model; conditions: both partners purified
T1 construct: Cloned into NdeI/XhoI of a modified pET-28a in which the thrombin cleavage site was removed; also called CGH-1_248-420^WT; source: E. coli Gold (DE3), purified (Ni-chelating resin, SEC Superdex 75)
T1 sequence (looked up): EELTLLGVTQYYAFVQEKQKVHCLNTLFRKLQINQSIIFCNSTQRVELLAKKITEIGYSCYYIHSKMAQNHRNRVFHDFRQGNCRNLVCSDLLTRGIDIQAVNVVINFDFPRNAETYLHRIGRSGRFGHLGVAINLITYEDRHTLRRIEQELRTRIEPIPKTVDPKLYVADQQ

human HA-tagged DDX6 = conditions: Co-immunoprecipitation, YFP-tagged PATL1 mutants; cited from earlier work
CGH-1_(248–420) F261A = molecular target: T2, CGH-1_(248–420) F261A (C. elegans, UniProt Q95YF3 248-420, F261A); experiment: ITC; ligand (peptide or CAR-1 fragment, 0.5 mM) injected into CGH-1_(248-420) or mutant (0.05 mM) in the cell; 20 °C; Buffer B (20 mM Tris-HCl pH 7.5, 150 mM NaCl); one-binding-site model; conditions: both partners purified
T2 construct: Mutant of m1 made with the MutanBEST kit; source: E. coli Gold (DE3), purified (Ni-chelating resin, SEC Superdex 75)
T2 sequence (looked up): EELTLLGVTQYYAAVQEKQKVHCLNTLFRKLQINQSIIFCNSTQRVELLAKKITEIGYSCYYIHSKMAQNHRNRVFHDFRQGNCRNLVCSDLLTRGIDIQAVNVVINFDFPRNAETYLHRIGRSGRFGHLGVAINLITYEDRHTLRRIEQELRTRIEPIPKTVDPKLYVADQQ

CGH-1_(248–420) Q266A = molecular target: T3, CGH-1_(248–420) Q266A (C. elegans, UniProt Q95YF3 248-420, Q266A); experiment: as above; conditions: both partners purified
T3 construct: Mutant of m1 made with the MutanBEST kit; source: E. coli Gold (DE3), purified (Ni-chelating resin, SEC Superdex 75)
T3 sequence (looked up): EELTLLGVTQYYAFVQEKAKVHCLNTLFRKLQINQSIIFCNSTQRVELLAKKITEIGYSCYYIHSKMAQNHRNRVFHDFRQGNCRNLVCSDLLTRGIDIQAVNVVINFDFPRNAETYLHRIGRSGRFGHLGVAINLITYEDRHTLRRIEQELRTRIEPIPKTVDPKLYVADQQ

CGH-1_(248–420) H269A = molecular target: T4, CGH-1_(248–420) H269A (C. elegans, UniProt Q95YF3 248-420, H269A); experiment: as above; conditions: both partners purified
T4 construct: Mutant of m1 made with the MutanBEST kit; source: E. coli Gold (DE3), purified (Ni-chelating resin, SEC Superdex 75)
T4 sequence (looked up): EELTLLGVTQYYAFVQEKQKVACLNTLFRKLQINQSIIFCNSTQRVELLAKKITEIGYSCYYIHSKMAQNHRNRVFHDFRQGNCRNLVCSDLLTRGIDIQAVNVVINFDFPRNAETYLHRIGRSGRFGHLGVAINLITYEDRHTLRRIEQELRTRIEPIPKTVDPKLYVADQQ

CGH-1_(248–420) K277A = molecular target: T5, CGH-1_(248–420) K277A (C. elegans, UniProt Q95YF3 248-420, K277A); experiment: as above; conditions: both partners purified
T5 construct: Mutant of m1 made with the MutanBEST kit; source: E. coli Gold (DE3), purified (Ni-chelating resin, SEC Superdex 75)
T5 sequence (looked up): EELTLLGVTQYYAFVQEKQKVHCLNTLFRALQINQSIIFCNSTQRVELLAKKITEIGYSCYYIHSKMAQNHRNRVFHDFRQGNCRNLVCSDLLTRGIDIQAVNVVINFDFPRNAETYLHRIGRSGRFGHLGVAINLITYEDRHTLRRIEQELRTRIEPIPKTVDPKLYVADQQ

CGH-1_(248–420) K277E = molecular target: T6, CGH-1_(248–420) K277E (C. elegans, UniProt Q95YF3 248-420, K277E); experiment: as above; conditions: both partners purified
T6 construct: Mutant of m1 made with the MutanBEST kit; source: E. coli Gold (DE3), purified (Ni-chelating resin, SEC Superdex 75)
T6 sequence (looked up): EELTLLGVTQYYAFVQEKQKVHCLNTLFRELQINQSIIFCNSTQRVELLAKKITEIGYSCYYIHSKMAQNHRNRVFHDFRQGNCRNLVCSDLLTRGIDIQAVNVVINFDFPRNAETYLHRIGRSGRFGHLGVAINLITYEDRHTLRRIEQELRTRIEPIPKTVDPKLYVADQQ

CGH-1_(248–420) R393A = molecular target: T7, CGH-1_(248–420) R393A (C. elegans, UniProt Q95YF3 248-420, R393A); experiment: as above; conditions: both partners purified
T7 construct: Mutant of m1 made with the MutanBEST kit; source: E. coli Gold (DE3), purified (Ni-chelating resin, SEC Superdex 75)
T7 sequence (looked up): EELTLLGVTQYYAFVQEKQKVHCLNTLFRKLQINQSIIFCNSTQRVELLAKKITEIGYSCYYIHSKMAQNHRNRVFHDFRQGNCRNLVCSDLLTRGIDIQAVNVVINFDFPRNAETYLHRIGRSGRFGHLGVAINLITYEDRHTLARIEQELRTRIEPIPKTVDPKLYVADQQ

CGH-1_(248–420) E396A = molecular target: T8, CGH-1_(248–420) E396A (C. elegans, UniProt Q95YF3 248-420, E396A); experiment: as above; conditions: both partners purified
T8 construct: Mutant of m1 made with the MutanBEST kit; source: E. coli Gold (DE3), purified (Ni-chelating resin, SEC Superdex 75)
T8 sequence (looked up): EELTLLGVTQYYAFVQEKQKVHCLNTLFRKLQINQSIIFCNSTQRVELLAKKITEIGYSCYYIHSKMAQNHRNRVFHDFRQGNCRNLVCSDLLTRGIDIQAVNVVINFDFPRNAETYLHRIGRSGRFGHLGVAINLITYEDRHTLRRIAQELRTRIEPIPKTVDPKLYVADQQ

[2] = molecular target: T9, CGH-1_(248–420) 4A mutant (His269, Cys270, Thr273 and Leu274 to Ala) (C. elegans, UniProt Q95YF3 248-420, His269 to Ala | Cys270 to Ala | Thr273 to Ala | Leu274 to Ala); experiment: as above; conditions: both partners purified
T9 construct: Mutant of m1 made with the MutanBEST kit; also called four-alanine mutant; source: E. coli Gold (DE3), purified (Ni-chelating resin, SEC Superdex 75)
T9 sequence (looked up): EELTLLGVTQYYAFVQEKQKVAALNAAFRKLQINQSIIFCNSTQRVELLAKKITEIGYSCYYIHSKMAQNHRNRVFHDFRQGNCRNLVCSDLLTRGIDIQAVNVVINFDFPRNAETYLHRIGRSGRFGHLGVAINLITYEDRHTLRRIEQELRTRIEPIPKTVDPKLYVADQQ

Chain of CGH-1_248-420^F355A (Q95YF3 248-420 F355A): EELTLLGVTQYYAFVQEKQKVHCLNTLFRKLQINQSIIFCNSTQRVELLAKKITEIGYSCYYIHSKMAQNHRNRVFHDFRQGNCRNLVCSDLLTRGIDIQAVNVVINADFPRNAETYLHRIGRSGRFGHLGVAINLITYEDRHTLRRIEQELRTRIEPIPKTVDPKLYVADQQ

SDEDHNIFDDEFDAANDETFGGGLDNIGENAELENYAT [PATR-1_30–67]
KD / binding (in words) (CGH-1_248-420^F355A): almost abolished the binding
KD / binding (in words) (CGH-1_248-420^F355A; listed as CePATR-1_30–67): almost abolishes the binding
KD / binding (in words) (CGH-1_248-420^F355A; listed as PATR1 30-67): No binding
KD / binding (in words) (CGH-1_248-420^F355A; listed as PATR-1 peptide): undetectable binding

B1: CAR-1 FDF-TFG (CAR-1_(184–268)) (domain or fragment, C. elegans, UniProt Q9XW17 184-268, looked up)
chain: LKFESDFDFEKANEKFQEVLVDNLEKLNIEDKAEPEVEEKKDAAFYDKKTSFFDNISCESLEKAEGKTGRPDWKKERETNQETFG
notes: thrombin site of the vector removed; also called CAR-1_184-268^WT; recombinant CAR-1_(184–268) protein; source: recombinant; plasmid in modified pET-28a
Kd [1]: 3030 ± 210 nM
dH [1]: -27 ± 0.43 kcal per mol
stoichiometry N [1]: 0.89

B2: YFP-tagged PATL1 W46A: substitution of Trp46 to Ala in the YFP-tagged PATL1 (protein, UniProt Q86TB9 1-770, looked up, variant W46A)
Protein PAT1 homolog 1: MFRYESLEDCPLDEDEDAFQGLGEEDEEIDQFNDDTFGSGAVDDDAQEAHERLAELEEKLPVAVNEQTGNGERDEMDLLGDHEENLAERLSKMVIENELEDPAIMRAVQTRPVLQPQPGSLNSSIWDGSEVLRRIRGPLLAQEMPTVSVLEYALPQRPPQGPEDDRDLSERALPRRSTSPIIGSPPVRAVPIGTPPKQMAVPSFTQQILCPKPVHVRPPMPPRYPAPYGERMSPNQLCSVPNSSLLGHPFPPSVPPVLSPLQRAQLLGGAQLQPGRMSPSQFARVPGFVGSPLAAMNPKLLQGRVGQMLPPAPGFRAFFSAPPSATPPPQQHPPGPGPHLQNLRSQAPMFRPDTTHLHPQHRRLLHQRQQQNRSQHRNLNGAGDRGSHRSSHQDHLRKDPYANLMLQREKDWVSKIQMMQLQSTDPYLDDFYYQNYFEKLEKLSAAEEIQGDGPKKERTKLITPQVAKLEHAYKPVQFEGSLGKLTVSSVNNPRKMIDAVVTSRSEDDETKEKQVRDKRRKTLVIIEKTYSLLLDVEDYERRYLLSLEEERPALMDDRKHKICSMYDNLRGKLPGQERPSDDHFVQIMCIRKGKRMVARILPFLSTEQAADILMTTARNLPFLIKKDAQDEVLPCLLSPFSLLLYHLPSVSITSLLRQLMNLPQSAATPALSNPHLTAVLQNKFGLSLLLILLSRGEDLQSSDPATESTQNNQWTEVMFMATRELLRIPQAALAKPISIPTNLVSLFSRYVDRQKLNLLETKLQLVQGIR
modifications: YFP tag
interaction with DDX6 (human HA-tagged DDX6): impaired the interaction

B3: EDC-3 FDF peptide (EDC-3_(235–271)) (peptide)
peptide: LADPIDFDLDSDFDFAENLKLFEKDENDDQYYETVEK
notes: Enhancer of decapping-3 (EDC-3, also called LSm16), C. elegans, FDF fragment, residues 235-271; Printed with free NH2 and COOH ends; also called EDC-3 peptide; EDC-3 FDF-FEK peptide; source: synthetic peptide (GL Biochem, Shanghai)
dH [1]: -17.6 ± 0.09 kcal per mol
stoichiometry N [1]: 1.07
Kd (CGH-1_(248–420) F261A): 1160 ± 240 nM
dH (CGH-1_(248–420) F261A): -14.1 ± 0.48 kcal per mol
stoichiometry N (CGH-1_(248–420) F261A): 1.09
Kd (CGH-1_(248–420) Q266A): 1750 ± 380 nM
dH (CGH-1_(248–420) Q266A): -12.1 ± 0.51 kcal per mol
stoichiometry N (CGH-1_(248–420) Q266A): 1.1
Kd (CGH-1_(248–420) H269A): 2550 ± 320 nM
dH (CGH-1_(248–420) H269A): -12.5 ± 0.34 kcal per mol
stoichiometry N (CGH-1_(248–420) H269A): 1.03
Kd (CGH-1_(248–420) K277A): 2740 ± 340 nM
dH (CGH-1_(248–420) K277A): -15.2 ± 0.47 kcal per mol
stoichiometry N (CGH-1_(248–420) K277A): 1.22
Kd (CGH-1_(248–420) K277E): 5970 ± 510 nM
dH (CGH-1_(248–420) K277E): -11.5 ± 0.3 kcal per mol
stoichiometry N (CGH-1_(248–420) K277E): 1.12
Kd (CGH-1_(248–420) R393A): 2070 ± 280 nM
dH (CGH-1_(248–420) R393A): -17.3 ± 0.47 kcal per mol
stoichiometry N (CGH-1_(248–420) R393A): 0.99
Kd (CGH-1_(248–420) E396A): 850 ± 110 nM
dH (CGH-1_(248–420) E396A): -16.1 ± 0.31 kcal per mol
stoichiometry N (CGH-1_(248–420) E396A): 1
Kd [2]: 8750 ± 3640 nM
dH [2]: -5.94 ± 0.89 kcal per mol
stoichiometry N [2]: 0.79
